{"source": "paper PMC11109380", "key": {"[1]": {"molecular_target": "human CD3ε Y50E-FLAG expressed in JK εKO cells (human)", "assay": "proximity ligation; in situ PLA (Duolink) with goat anti-CD3ε and mouse anti-LCK in JK εKO cells expressing hCD3ε variants; unstimulated or stimulated with 5 μg/ml anti-CD3ε (OKT3) for 5 min at 37°C; dots per cell normalised to the stimulated WT"}, "[2]": {"molecular_target": "human CD3ε cytoplasmic tail fused to GST, Y39/50E (human)", "assay": "pull-down; GST-CD3ε cytoplasmic tail variants on glutathione sepharose beads, incubated with Jurkat T cell lysate (lysis buffer with 0.3% Brij96V, 20 mM Tris-HCl pH 8, 137 mM NaCl) overnight at 4°C; immunoblot, signals normalised to GST"}, "[3]": {"molecular_target": "human CD3ε cytoplasmic tail fused to GST, Y50E (human)", "assay": "pull-down; GST-CD3ε cytoplasmic tail variants on glutathione sepharose beads, incubated with Jurkat T cell lysate (lysis buffer with 0.3% Brij96V, 20 mM Tris-HCl pH 8, 137 mM NaCl) overnight at 4°C; immunoblot, signals normalised to GST"}}}
{"substance": "Src family kinase LCK (from UniProt P06239 1-509) (enzyme)", "values": [{"measurement": "reduction of TCR-LCK proximity compared to WT", "setting": "[1]", "value": 60, "unit": "%"}, {"measurement": "residual binding", "setting": "[1]", "value": "< 30", "unit": "%"}, {"measurement": "reduction of binding compared to CD3ε WT", "setting": "[2]", "value": 80, "unit": "%"}, {"measurement": "reduction of binding compared to CD3ε WT", "setting": "[3]", "value": 80, "unit": "%"}]}
